In the supplement of paper PMC9233669:
Variants at the floor of the assay were thinned out.

What was measured:
biotinyl-Phe-oxazolone = test: self-aminoacylation, catalytic enhancement (BFO) (fold over background); higher = more active; k-Seq, kA / k0A0; sequences stand for … in GGGAAUGGAUCCACAUCUACGAAUUC…UUCACUGCAGACUUGACGAAGCUG
Summary of the method: (§1)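 Mutagenized RNA pools with a 21-nt variable region (0.43 μM) reacted with each biotinyl-aminoacyl-oxazolone at 2–1250 μM. Reactions ran in 50 μL HEPES/NaCl/KCl/MgCl2/CaCl2 buffer with 5% acetonitrile, pH 6.9–7.0, for 90 minutes at room temperature. Streptavidin-captured RNA was quantified by triplicate qPCR and Illumina sequencing, and per-sequence fraction reacted was fit to a pseudo-first-order model with 1000 bootstraps. Catalytic enhancement is median kA divided by the uncatalyzed rate, the low-activity peak of a bimodal Gaussian fit.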

biotinyl-Leu-oxazolone = test: self-aminoacylation, catalytic enhancement (BLO) (fold over background); higher = more active; k-Seq, kA / k0A0; sequences stand for … in GGGAAUGGAUCCACAUCUACGAAUUC…UUCACUGCAGACUUGACGAAGCUG
Summary of the method: as §1

biotinyl-Val-oxazolone = test: self-aminoacylation, catalytic enhancement (BVO) (fold over background); higher = more active; k-Seq, kA / k0A0; sequences stand for … in GGGAAUGGAUCCACAUCUACGAAUUC…UUCACUGCAGACUUGACGAAGCUG
Summary of the method: as §1

biotinyl-Trp-oxazolone = test: self-aminoacylation, catalytic enhancement (BWO) (fold over background); higher = more active; k-Seq, kA / k0A0; sequences stand for … in GGGAAUGGAUCCACAUCUACGAAUUC…UUCACUGCAGACUUGACGAAGCUG
Summary of the method: as §1

biotinyl-Met-oxazolone = test: self-aminoacylation, catalytic enhancement (BMO) (fold over background); higher = more active; k-Seq, kA / k0A0; sequences stand for … in GGGAAUGGAUCCACAUCUACGAAUUC…UUCACUGCAGACUUGACGAAGCUG
Summary of the method: as §1

biotinyl-Ile-oxazolone = test: self-aminoacylation, catalytic enhancement (BIO) (fold over background); higher = more active; k-Seq, kA / k0A0; sequences stand for … in GGGAAUGGAUCCACAUCUACGAAUUC…UUCACUGCAGACUUGACGAAGCUG
Summary of the method: as §1

Sequence | self-aminoacylation (biotinyl-Phe-oxazolone) | self-aminoacylation (biotinyl-Leu-oxazolone) | self-aminoacylation (biotinyl-Val-oxazolone) | self-aminoacylation (biotinyl-Trp-oxazolone) | self-aminoacylation (biotinyl-Met-oxazolone) | self-aminoacylation (biotinyl-Ile-oxazolone)
AUGACCCUGCUCAUCGAGUGA [Fam2.1 aminoacylation ribozyme variant] | 1.52 | 1.95 | 1.43 | 2.47 | 1.83 | 1.36
AUGACCCUGGGCAUCGAGUGA [Fam2.1 aminoacylation ribozyme variant] | 42.4 | 8.34 | 3.32 | 7.35 | 7.08 | 3.97
AUGACCCUGGUCAGCGAGUGA [Fam2.1 aminoacylation ribozyme variant] | 24.2 | 5.66 | 2.94 | 6.08 | 4.85 | 3.46
AUGACCCUGGUCAUCGAGAGA [Fam2.1 aminoacylation ribozyme variant] | 2.57 | 1.52 | 1.34 | 1.36 | 1.47 | 1.28
AUGACCCUGGUCAUCGUGUGA [Fam2.1 aminoacylation ribozyme variant] | 17.4 | 2.88 | 1.5 | 2.61 | 2.76 | 1.4
AUGACCCUGGUCAUCUAGUGA [Fam2.1 aminoacylation ribozyme variant] | 63.5 | 8.57 | 3.7 | 9.46 | 8.18 | 3.75
AUGACGCUGGUCAUCGAGUGA [Fam2.1 aminoacylation ribozyme variant] | 36.8 | 5.8 | 3.4 | 7.12 | 6.65 | 3.6
AUGCACCCAGGUCAUCGGGUG [Fam2.2 aminoacylation ribozyme variant] | 21 | 4.35 | 3.89 | 5.32 | 3.42 | 3.29
AUGCACCGAGGUCAUCGGGUG [Fam2.2 aminoacylation ribozyme variant] | 40.4 | 6.58 | 3.66 | 6.46 | 5.79 | 3.81
AUGCACCUAAGUCAUCGGGUG [Fam2.2 aminoacylation ribozyme variant] | 58.2 | 10.5 | 4.84 | 8.67 | 8.76 | 5.66
AUGCACCUAGGCCAUCGGGUG [Fam2.2 aminoacylation ribozyme variant] | 27.6 | 4.53 | 3.41 | 4.46 | 3.87 | 3.32
AUGCACCUAGGUCAGCGGGUG [Fam2.2 aminoacylation ribozyme variant] | 18.1 | 4.65 | 3.02 | 5.27 | 3.65 | 3.27
AUGCACCUAGGUCAUCGCGUG [Fam2.2 aminoacylation ribozyme variant] | 56 | 12 | 5.84 | 11 | 8.45 | 5.09
AUGCACUUAGGUCAUCGGGUG [Fam2.2 aminoacylation ribozyme variant] | 62.8 | 10.6 | 5.03 | 7.92 | 8.73 | 5.29
AUGCCCCUAGGUCAUCGGGUG [Fam2.2 aminoacylation ribozyme variant] | 63.9 | 11.1 | 5.39 | 7.6 | 8.48 | 5.52
AUGUUUGCUAAAAGUCGCAAG [Fam3.1 aminoacylation ribozyme variant] | 4.95 | 1.83 | 1.47 | 2.45 | 1.69 | 1.56
AUGUUUGCUAAUAGUGGCAAG [Fam3.1 aminoacylation ribozyme variant] | 1.22 | 0.588 | 0.643 | 0.491 | 0.483 | 0.646
AUGUUUGGUAAUAGUCGCAAG [Fam3.1 aminoacylation ribozyme variant] | 3.16 | 1.84 | 1.51 | 2.15 | 1.79 | 1.92
AUUAAACUGGUCAUCGAGUGA [Fam2.1 aminoacylation ribozyme variant] | 4.94 | 4.35 | 2.42 | 6.94 | 4.15 | 2.71
AUUAACCCAGGUCAUCGGGUG [Fam2.2 aminoacylation ribozyme variant] | 36.2 | 8.17 | 3.58 | 5.58 | 6.61 | 4.38
AUUAACCGAGGUCAUCGGGUG [Fam2.2 aminoacylation ribozyme variant] | 48.9 | 7.86 | 5.32 | 7.45 | 7.9 | 4.6
